Positions count from the first letter of the chain named. Names and notes keep the numbering of the source.
B1: rFluA-20 heavy chain mutant Y34A (antibody, V domains shown)
VH: QVQLQESGPGLVKPSETLSLTCSVSGVSVTSDIAYWTWIRQPPGKGLEWIGYIFYNGDTNYNPSLKSRVTMSIDTSKNEFSLRLTSVTAADTAVYFCARGTEDLGYCSSGSCPNHWGQGTLVTVSS
VL: DIQMTQSPSSLSASIGDRVTITCRPSQNIRSFLNWFQHKPGKAPKLLIYAASNLQSGVPSRFSGSGSGTEFTLTIRSLQPEDFATYYCQQSYNTPPTFGQGTKVEIK
B2: rFluA-20 heavy chain mutant E97A (antibody, V domains shown)
VH: B1 VH with A34Y, E102A
VL: B1 VL
B3: rFluA-20 heavy chain mutant Y100aA (antibody, V domains shown)
VH: B1 VH with A34Y, Y106A
VL: B1 VL
B4: rFluA-20 light chain mutant N53A (antibody, V domains shown)
VH: B1 VH with A34Y
VL: B1 VL with N53A
B5: rFluA-20 heavy chain mutant T96A (antibody, V domains shown)
VH: B1 VH with A34Y, T101A
VL: B1 VL

Molecular target: H3 HA A/Hong Kong/1/1968 (H3N2), recombinant soluble trimer (influenza A virus, UniProt Q91MA7 17-530)

Binder	EC50
B1	0.07 µg/mL
B2	0.07 µg/mL
B3	0.07 µg/mL
B4	0.06 µg/mL
B5	0.1 µg/mL

— US20220387578A1 (VANDERBILT UNIVERSITY, published 2022)
